Assay results taken from patent US20250325667A1 (published 2025).

T1: HPV E7 peptide on HLA-A*11:01 (human)
T1 peptide: IVCPICSQK

B1: TCR074 (TCR, V domains shown)
Valpha: AQKITQTQPGMFVQEKEAVTLDCTYDTSDPSYGLFWYKQPSSGEMIFLIYQGSYDQQNATEGRYSLNFQKARKSANLVISASQLGDSAMYFCAMRIDAGGTSYGKLTFGQGTILTVHP
Vbeta: DAMVIQNPRYQVTQFGKPVTLSCSQTLNHNVMYWYQQKSSQAPKLLFHYYDKDFNNEADTPDNFQSRRPNTSFCFLDIRSPGLGDAAMYLCATSRDRVNTGELFFGEGSRLTVL
B2: TCR123 (TCR, V domains shown)
Valpha: SQKIEQNSEALNIQEGKTATLTCNYTNYSPAYLQWYRQDPGRGPVFLLLIRENEKEKRKERLKVTFDTTLKQSLFHITASQPADSATYLCALAGYQKVTFGTGTKLQVIP
Vbeta: SQTIHQWPATLVQPVGSPLSLECTVEGTSNPNLYWYRQAAGRGLQLLFYSVGIGQISSEVPQNLSASRPQDRQFILSSKKLLLSDSGFYLCAWSLRTSGSEQFFGPGTRLTVL
B3: TCR095 (TCR, V domains shown)
Valpha: GIQVEQSPPDLILQEGANSTLRCNFSDSVNNLQWFHQNPWGQLINLFYIPSGTKQNGRLSATTVATERYSLLYISSSQTTDSGVYFCAVEGDNAGGTSYGKLTFGQGTILTVHP
Vbeta: EAQVTQNPRYLITVTGKKLTVTCSQNMNHEYMSWYRQDPGLGLRQIYYSMNVEVTDKGDVPEGYKVSRKEKRNFPLILESPSPNQTSLYFCASSWSTSYGYTFGSGTRLTIV

Target: T1, HPV E7 peptide on HLA-A*11:01
Test: multimer staining

Binding result, recognises:
B1
B2
B3
